Source: the supplement of paper PMC7125110
± gives the standard error. Fewer inactive variants are shown than the library holds.

B1: glmS ribozyme (parent)
chain: AUAAAAGCGCCAGAACUACAGAAAUGUAGUUGACGAGGAGGAGGUUUAUCGAAUUUUCGGCGGAUGCCUCCAAA

Legend:
Settings in all cases: with glucosamine-6-phosphate
glucosamine-6-phosphate [1] = variants of: B1; experiment: self-cleavage kobs at 40 uM GlcN6P; higher = faster cleavage; RNA array
In short: (§1)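 Glucosamine-6-phosphate, from 40 μM to 10 mM in HEPES/KCl/Mg(OAc)2 buffer, was flowed over sequenced MiSeq chips carrying barcoded ribozyme variants transcribed in situ by E. coli RNA polymerase. A hybridised Cy3 probe tracked the variants at 37 °C as tiles were imaged over ~14 h. kobs, kcat and KM were obtained by fitting normalised per-tile medians to exponential decays and then applying weighted Michaelis–Menten fits across concentrations.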

glucosamine-6-phosphate [2] = variants of: B1; experiment: self-cleavage kobs at 160 uM GlcN6P; higher = faster cleavage; RNA array
In short: as §1

glucosamine-6-phosphate [3] = variants of: B1; experiment: self-cleavage kobs at 640 uM GlcN6P; higher = faster cleavage; RNA array
In short: as §1

glucosamine-6-phosphate [4] = variants of: B1; experiment: self-cleavage kobs at 2500 uM GlcN6P; higher = faster cleavage; RNA array
In short: as §1

glucosamine-6-phosphate [5] = variants of: B1; experiment: self-cleavage kobs at 10000 uM GlcN6P; higher = faster cleavage; RNA array
In short: as §1

Row | Variant | self-cleavage kobs at 40 uM GlcN6P (glucosamine-6-phosphate [1]) [s⁻¹] | self-cleavage kobs at 160 uM GlcN6P (glucosamine-6-phosphate [2]) [s⁻¹] | self-cleavage kobs at 640 uM GlcN6P (glucosamine-6-phosphate [3]) [s⁻¹] | self-cleavage kobs at 2500 uM GlcN6P (glucosamine-6-phosphate [4]) [s⁻¹] | self-cleavage kobs at 10000 uM GlcN6P (glucosamine-6-phosphate [5]) [s⁻¹]
1 | C8G U65C | < 1e-05 | < 1e-05 | < 1e-05 | < 1e-05 | –
2 | C8A U31C G40A A42C U65A G66A | < 1e-05 | – | – | – | –
3 | C8A G66U | < 1e-05 | < 1e-05 | – | < 1e-05 | –
4 | G9C G37U | < 1e-05 | < 1e-05 | < 1e-05 | < 1e-05 | –
5 | C8G G40U | < 1e-05 | – | < 1e-05 | < 1e-05 | < 1e-05
6 | C8G G40A | < 1e-05 | < 1e-05 | – | < 1e-05 | < 1e-05
7 | C8A U49A G51A | < 1e-05 | – | – | – | < 1e-05
8 | G9A C50A U56C C67A | < 1e-05 | – | < 1e-05 | < 1e-05 | –
9 | C8G U31C C71A | < 1e-05 | – | – | – | –
10 | C8A U46A | < 1e-05 | < 1e-05 | < 1e-05 | < 1e-05 | < 1e-05
11 | C8A G29C G35A C67G | < 1e-05 | – | – | – | –
12 | G7U U31G G62A | < 1e-05 | – | – | < 1e-05 | < 1e-05
13 | C8G G59U | < 1e-05 | < 1e-05 | < 1e-05 | < 1e-05 | –
14 | G9C A33U A52C | < 1e-05 | – | – | – | –
15 | C8U C11U U57G C67G | 0.000617 ± 0.0003 | – | 7.99e-05 ± 3.8e-05 | – | 0.000608 ± 0.00023
16 | C8A U45A A53U | < 1e-05 | – | – | – | –
17 | C8U C11G C50U U56C U69G | 4.97e-05 ± 2.2e-05 | – | – | – | –
18 | C8U A39U | < 1e-05 | < 1e-05 | – | < 1e-05 | –
19 | C8U U30G | < 1e-05 | < 1e-05 | < 1e-05 | – | < 1e-05
20 | C8U U47C | < 1e-05 | < 1e-05 | < 1e-05 | < 1e-05 | < 1e-05
21 | C8G C50G C67A | 0.000144 ± 2.5e-05 | – | – | – | 0.000113 ± 1.8e-05
22 | C8G A15C | < 1e-05 | < 1e-05 | < 1e-05 | < 1e-05 | < 1e-05
23 | C8A U49A | < 1e-05 | – | < 1e-05 | – | –
24 | G7U U54G C70G C71U | 7.3e-05 ± 2.8e-05 | – | – | – | 5.65e-05 ± 2.5e-05
25 | C8G G37C | < 1e-05 | – | < 1e-05 | – | < 1e-05

Row | Variant | self-cleavage kobs at 40 uM GlcN6P (glucosamine-6-phosphate [1]) [s⁻¹] | self-cleavage kobs at 160 uM GlcN6P (glucosamine-6-phosphate [2]) [s⁻¹] | self-cleavage kobs at 640 uM GlcN6P (glucosamine-6-phosphate [3]) [s⁻¹] | self-cleavage kobs at 2500 uM GlcN6P (glucosamine-6-phosphate [4]) [s⁻¹] | self-cleavage kobs at 10000 uM GlcN6P (glucosamine-6-phosphate [5]) [s⁻¹]
26 | G9A G44A C67A | < 1e-05 | – | – | – | –
27 | G9A C16U | < 1e-05 | < 1e-05 | < 1e-05 | < 1e-05 | 3.09e-05 ± 1.5e-05
28 | C8A C67U | < 1e-05 | < 1e-05 | < 1e-05 | – | < 1e-05
29 | C8A G44C C70A | < 1e-05 | – | – | – | < 1e-05
30 | C8A G9A A33U | < 1e-05 | – | – | – | –
31 | C8U G35A G59U | < 1e-05 | – | – | – | –
32 | G7U U31A | < 1e-05 | < 1e-05 | < 1e-05 | < 1e-05 | < 1e-05
33 | C8A U31G | < 1e-05 | < 1e-05 | < 1e-05 | < 1e-05 | < 1e-05
34 | C8U G63C | < 1e-05 | < 1e-05 | < 1e-05 | < 1e-05 | < 1e-05
35 | C8U G51A A52G G63C | < 1e-05 | – | – | – | –
36 | G9A G32C A52U | < 1e-05 | – | – | – | < 1e-05
37 | G9C C34A A42U G43A | < 1e-05 | – | – | – | –
38 | C8A G13U G41C U55C U65A U69G | < 1e-05 | – | – | – | –
39 | G9A C50G U65G G66C C70G | 5.55e-05 ± 2.4e-05 | – | – | – | 4.91e-05 ± 1.6e-05
40 | C8A G60U | < 1e-05 | < 1e-05 | < 1e-05 | < 1e-05 | –
41 | G9A A14G | < 1e-05 | < 1e-05 | – | – | 5.01e-05 ± 1.3e-05
42 | C8A A36U | < 1e-05 | < 1e-05 | < 1e-05 | < 1e-05 | < 1e-05
43 | C8U G13C G51A | < 1e-05 | – | – | < 1e-05 | < 1e-05
44 | C8A U47G | < 1e-05 | – | – | – | –
45 | G9A G51A | < 1e-05 | – | – | – | < 1e-05
46 | C8A C68G | 0.000368 ± 0.00014 | – | – | – | –
47 | C8A A42U G62U | < 1e-05 | – | – | < 1e-05 | –
48 | G9A G41U U56G | < 1e-05 | < 1e-05 | < 1e-05 | – | < 1e-05
49 | G9A G13U C50G U57A | 0.000665 ± 0.00023 | – | – | – | 9.79e-05 ± 2e-05
